According to paper PMC9050506 (RSC Advances, 2020):

Assays:
[1] = system: dimannosylated peptide P2 (DM); type: binding
[2] = binding partner not given; cited from earlier work

Molecule: CVN2L0-V2: CVN2L0 variant with one C58E–C73R substitution, three disulfide bonds
- Rmax, binding to DM ([1]; SPR sensorgrams Fig. 3E-F): 132 RU

B1: CVN2L0-V4: CVN2L0 variant with Cys–Cys mutagenesis to Trp–Met and Glu–Arg, two disulfide bonds (protein)
chain: LGKFSQTCYNSAIQGSVLTSTCERTNGGYNTSSIDLNSVIENVDGSLKWQPSNFIETWRNTQLAGSSELAAEMKTRAQQFVSTKINLDDHIANIDGTLKYELGKFSQTCYNSAIQGSVLTSTCERTNGGYNTSSIDLNSVIENVDGSLKWQPSNFIETERNTQLAGSSELAAERKTRAQQFVSTKINLDDHIANIDGTLKYE
modifications: left off: His6, N-terminal, state not stated
- binding to DM (in words) ([1]; SPR, listed as V4): showed binding

B2: wild-type CV-N: 11 kDa lectin originating from Nostoc ellipsosporum (protein, UniProt P81180 1-101, looked up)
Cyanovirin-N: LGKFSQTCYNSAIQGSVLTSTCERTNGGYNTSSIDLNSVIENVDGSLKWQPSNFIETCRNTQLAGSSELAAECKTRAQQFVSTKINLDDHIANIDGTLKYE
- Kd [2]: 5.7 nM
